The text below walks through data of patent US20210268073A1, “METHODS OF REDUCING POLYSORBATE DEGRADATION IN DRUG FORMULATIONS” (Regeneron Pharmaceuticals, Inc., priority 2020, published 2021).

The conditions of the data set: pH 6.

B1: human liver carboxylesterase 1: commercial human liver carboxylesterase 1 purchased from Abcam, SEQ ID NO: 12 (protein, listed as Homo sapiens)
chain: MWLRAFILATLSASAAWGHPSSPPVVDTVHGKVLGKFVSLEGFAQPVAIFLGIPFAKKPLGPLRFTPPQPAEPWSFVKNATSYPPMCTQDPKAGQLLSELFTNRKENIPLKLSEDCLYLNIYTPADLTKKNRLPVMVWIHGGGLMVGAASTYDGLALAAHENVVVVTIQYRLGIWGFFSTGDEHSRGNWGHLDQVAALRWVQDNIASFGGNPGSVTIFGESAGGESVSVLVLSPLAKNLFHRAISESGVALTSVLVKKGDVKPLAEQIAITAGCKTTTSAVMVHCLRQKTEEELLETTLKMKFLSLDLQGDPRESQPLLGTVIDGMLLLKTPEELQAERNFHTVPYMVGINKQEFGWLIPMQLMSYPLSEGQLDQKTAMSLLWKSYPLVCIAKELIPEATEKYLGGTDDTVKKKDLFLDLIADVMFGVPSVIVARNHRDAGAPTYMYEFQYRPSFSSDMKPKTVIGDHGDELFSVFGAPFLKEGASEEEIRLSKMVMKFWANFARNGNPNGEGLPHWPEYNQKEGYLQIGANTQAAQKLKDKEVAFWTNLFAKKAVEKPPQTEHIEL
In the case of B1, the “PS80 degradation pattern compared with mAb-1” value is given as “equivalent degradation pattern”.
